Measured values from paper PMC6958382, “27th Annual GP2A Medicinal Chemistry Conference” (Pharmaceuticals, 2019).

Molecular target: T1, β2-adrenergic receptor (β2-AR) (Homo sapiens (assumed), UniProt P07550)
T1 construct: β2-adrenoceptor (β2-AR), crystallised in the active state with a catecholamine-type agonist (super-epi or super-iso) and Nb6B9; Conference abstract (poster P20) with no methods; also called ß2-AR
Assay: crystal structure; co-crystal structures of β2-AR with super-epi or super-iso, bound to Nb6B9; active state of the receptor (Figure 17 legend)
Conditions: both partners purified

B1: Nb6B9 (VHH)
VHH: QVQLQESGGGLVQAGGSLRLSCAASGSIFALNIMGWYRQAPGKQRELVAAIHSGGTTNYANSVKGRFTISRDNAANTVYLQMNSLKPEDTAVYYCNVKDFGAIIYDYDYWGQGTQVTVSS
B1: binds.
